Laboratory results as given in the supplement of paper PMC12042874.
± gives the uncertainty stated by the source.

Test: amyloid nucleation score (Sup35N fusion, yeast selection) (log enrichment); library NNK3; higher = more nucleation; inactive = no reads after selection
Method in brief: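 In psi-negative yeast, Sup35N fusions carrying peptides of 20 random codons were induced with 100 μM copper sulfate for 24 hours. The cells then grew 7 days at 30°C on medium lacking adenine and uracil, and plasmid inserts from input and output were Illumina-sequenced, excluding sequences with under 100 input reads. Nucleation score is the DiMSum log enrichment of output over input reads, centred on the mode score of non-aggregating sequences.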

Row | Substance | amyloid nucleation score
1 | NKSRTYCSARRLHRGKFRLI | inactive
2 | SLEVINVVRININNQEYIYL | 0.276 ± 0.23
3 | SFLGLMSMEELITS | inactive
4 | SLASYLFTVTATNRYCERGA | 0.996 ± 0.12
5 | CASTDKNPFLPVNAAITYGL | inactive
6 | TGYSYFYGWMVTYATQSKRV | inactive
7 | YYCDLRSYIRSPG | inactive
8 | FNLNESSGYVKFYLNGNRPL | inactive
9 | VVGRSCLFYSIVMY | 0.419 ± 0.67
10 | CLIVTLTHMS | 1.64 ± 0.062
11 | SRYMNRR | inactive
12 | CVWML | inactive
13 | RWYRLSGYKSHRNR | inactive
14 | LFMLGQLLTWDFHALSSGYV | 0.523 ± 0.19
15 | IYSYTVFPSFGGMLCMVLVG | inactive
16 | RSSSCVLFTAGTQNNRVFVV | inactive
17 | PVWVKYIDYCPSRKHLSCRV | inactive
18 | GHGSFE | inactive
19 | LCVDVS | inactive
20 | YRMNDGNDGICMVWLRNSAY | inactive
21 | SAYRVKMHKRRKAESVLGFR | inactive
22 | TLASTGYFFR | inactive
23 | QDLSYRVGLFWDRSIVLNWY | inactive
24 | IEFGGNN | 1.68 ± 0.13

Row | Substance | amyloid nucleation score
25 | YCIVLKYNQLLSTMSANNMY | 1.19 ± 0.1
26 | TCLWGYALFICMNSRWGMRW | inactive
27 | DEVVWY | inactive
28 | PDSMNFTPDNHHVRNGYNNF | inactive
29 | FMLGDAVFRFFVRNGGRIDN | inactive
30 | RLSLVFRHIAFTS | inactive
31 | HSMLDFFST | inactive
32 | YWYTTCIWRVTSNCWVCISW | inactive
33 | IGYLDFVHSIENVVYNWGAS | inactive
34 | CYIMTYKSLNTF | inactive
35 | CPVKHGGLHYSNQSYHSSGG | inactive
36 | SVNTLLALRV | inactive
37 | MSIDPHILVLVGEWLVCLKL | inactive
38 | LQAHCSNFWVFYMAFGPIDF | 1.76 ± 0.095
39 | KKMHNVALGFMFIVVG | inactive
40 | SDWFGCVVVTLCLVNHQALS | inactive
41 | MKNRYLNRCTLVANAFGLKE | inactive
42 | GDKISANACSMNFFDMFW | inactive
43 | HKRIFGCVISVPFTSCFT | inactive
44 | FGTEDK | inactive
45 | TVGGFAWLDNSLSDRMFDTS | inactive
46 | AVIIDIHGINPMG | inactive
47 | FAHVI | inactive
48 | CVYYSRKG | 1.95 ± 0.073

Row | Substance | amyloid nucleation score
49 | TPLGSQLALESDFFYTPNRC | inactive
50 | IGITLFENHKFGLGLANVPG | inactive
51 | SCMKDMWFVRVMIGLEKKNS | inactive
52 | QAGLSCD | inactive
53 | VGRAEWLC | inactive
54 | RGFAVSF | -0.678 ± 0.89
55 | RCRTDILYNFERHYLRVEYA | inactive
56 | GFSNITMCLA | inactive
57 | PKVRMAPVNERNDFFSVILG | inactive
58 | NQVVAVG | inactive
59 | VWVRLTFKTSY | 0.678 ± 0.16
60 | SFECDRYYFSWDGFMSGLT | inactive
61 | GSSRSGKGHCMLRVSVFYCV | inactive
62 | PYGNSELYSERGERAHCNLG | inactive
63 | LYRAIIIRRWFGNMGDFHKP | inactive
64 | AIRGVARLRVMDRVSALPLR | inactive
65 | KPISRRGWPRPKAGRNEPPR | inactive
66 | GAVLLSGEEL | 0.871 ± 0.17
67 | LSYSIRLLIFVRR | -0.293 ± 0.82
68 | LHVSTRFA | inactive
69 | AVFSKGISCGLH | -0.434 ± 1.1
70 | FQCWYNKIRKFWVVHRWVSM | inactive
71 | VTQMKNTLY | inactive
72 | VVRLWE | inactive

Row | Substance | amyloid nucleation score
73 | VMKPSNVVQGSMNPESSLGM | inactive
74 | NSVRYLTWVAFLVCLMAYML | inactive
75 | CTGLECIGTAYRQGGDRVLW | inactive
76 | PLSLGFVIGHHVSIPGSSTD | inactive
77 | IVRRGLKMCG | inactive
78 | HRSINCWAYVRL | inactive
79 | LFSSFTSPLRMRWLDRSYHF | inactive
80 | YLKGTMSDSKNGPYDRGKLT | inactive
81 | WLLEKYKLCMGWFFYSDFLT | inactive
82 | LLLYWRRTMVALRCTYFGLT | inactive
83 | AQFVWMKLHICRTDLGESH | inactive
84 | VSSAMYYLFKGLAETLRYSS | inactive
85 | IFLGYRNYDYFSFTVLVE | inactive
86 | WPGNWSQFNQCWCRETTCYV | inactive
87 | TECMGGGSVWTQW | inactive
88 | AIGDVTVGRIHFDMHCGLGR | -0.955 ± 1.2
89 | ESWKWYQYSVQWAWYEHPHS | inactive
90 | KRVRVRFASAMHGLMSHPDT | inactive
91 | ERLFRFENEDLVIFIYCSIL | inactive
92 | TYVGV | inactive
93 | SFVQLMFLFGT | 1.83 ± 0.076
94 | HGDVCMNMGYNRT | inactive
95 | YSQVVW | inactive
96 | IALSTDSMPRYLEALRACGC | inactive

Row | Substance | amyloid nucleation score
97 | FGVGMALALCQRH | inactive
98 | SFMACRLCGRAVDDIVEYTV | inactive
99 | ASVPAN | inactive
100 | LHCFIMLIKCDRVMIVTVQG | inactive
101 | VKGQWR | inactive
102 | SYSKVCRSKRQI | 0.185 ± 0.71
103 | SWQMWYWLLVKSMPCMLHHF | inactive
104 | EQLFD | inactive
105 | FELPSVKGGCILPSQILP | -0.517 ± 0.73
106 | LYAKF | inactive
107 | HLSLAVEFA | inactive
108 | YYFTVLRLVVNMAIVSPCPQ | inactive
109 | PLCIHLVVMKSKPATNFSGA | inactive
110 | IRQGNVYK | inactive
111 | TQWYS | inactive
112 | YYTSYIAGNLAFNTSKFRKM | -0.347 ± 0.7
113 | WSLMCRVAYRYGRVRNSKSG | inactive
114 | NLVRSDSVRFAYVKWGPMHG | inactive
115 | RYIYPVDLYIWYNYGILLNR | 0.777 ± 0.23
116 | NISLELDVFCTTNNMG | 1.74 ± 0.089
117 | SNAHMCVRRTAWKNI | inactive
118 | SYAQGH | 0.901 ± 0.18
119 | AYLYNFLWDTGSVIWVVGHL | inactive
120 | GCLIAGYKKRDANKFCGVAL | inactive

Row | Substance | amyloid nucleation score
121 | YTRDRQV | inactive
122 | RCGEDNLQGSLSTSTVGNLV | inactive
123 | LLIDNVCSNIARVMHKVWLW | inactive
124 | FGILSDIVCSTVVKNCDL | inactive
125 | QRKTYRTVEHGMHSSSNL | inactive
126 | MFNSFTNWLRQDQCRTIIGS | inactive
127 | IMCRLMSKVYTMPQYEILSF | inactive
128 | WNVPGVHCCIWVTRWEMGPT | 2.72 ± 0.078
129 | SRVILL | inactive
130 | MDRASVCLEGGMSMVWLRYV | inactive
131 | VRDCTTDTQWERWVETLSPS | inactive
132 | LNPTAYYVVPLVLALAWISH | inactive
133 | YDSYTGRHNKLILRM | inactive
134 | VWFINFVCLFKGSLLCISES | inactive
135 | DCLASGMISFRVTMSNRYTI | 0.241 ± 0.59
136 | WCDLRFISWSFSVFWCV | inactive
137 | CFTNNSIHVYSLWIKTRHFF | 0.239 ± 0.58
138 | CSGAIHYPYRLMRERNFTGR | inactive
139 | RVCSW | inactive
140 | PLITVDY | -0.153 ± 0.7
141 | NNCRSLY | 0.927 ± 0.21
142 | MSLRLVMWFSNLVSYTV | inactive
143 | LFRVSWMLGNKIDISKSIYR | inactive
144 | GLFFW | -0.669 ± 0.74

Row | Substance | amyloid nucleation score
145 | VHYYEE | inactive
146 | YHTARFGIKFLLRM | inactive
147 | GSYTLYFVIWLFHIRFYGTR | inactive
148 | NVALVRTGVIHWSYSVISRV | inactive
149 | ILISFNQLKP | 1.18 ± 0.13
150 | SRIKD | inactive
151 | TAKSSGINDRLTQRI | inactive
152 | VNEIF | 0.432 ± 0.23
153 | VRYWTTPVL | inactive
154 | IQSSYSMYIEWL | inactive
155 | ERELGQRLSCTGNSTVWSYE | inactive
156 | CAKMHTCVYSFCTMEWSLTR | inactive
157 | FYMLMISSQYFVTRLAPYFP | -0.015 ± 0.87
158 | VIRRHWR | inactive
159 | VHYIVNYRGRILV | inactive
160 | KRNFGWSAIRVQFIDFCLKG | inactive
161 | FSLMLSRTTMAIFTDIRDWG | inactive
162 | SASCKYGVCLSDLLVSDWHY | inactive
163 | KFKENMYLTYSCLHKVIMRF | inactive
